In paper PMC6128766 (Nature structural & molecular biology, 2018):

Biological target: the molecule itself
Experiment: cryo-EM structure

B1: TRPV3(Y564A) (natural protein, mouse, UniProt Q8K424 1-791, looked up)
chain: MNAHSKEMAPLMGKRTTAPGGNPVVLTEKRPADLTPTKKSAHFFLEIEGFEPNPTVTKTSPPIFSKPMDSNIRQCLSGNCDDMDSPQSPQDDVTETPSNPNSPSANLAKEEQRQKKKRLKKRIFAAVSEGCVEELRELLQDLQDLCRRRRGLDVPDFLMHKLTASDTGKTCLMKALLNINPNTKEIVRILLAFAEENDILDRFINAEYTEEAYEGQTALNIAIERRQGDITAVLIAAGADVNAHAKGVFFNPKYQHEGFYFGETPLALAACTNQPEIVQLLMENEQTDITSQDSRGNNILHALVTVAEDFKTQNDFVKRMYDMILLRSGNWELETMRNNDGLTPLQLAAKMGKAEILKYILSREIKEKPLRSLSRKFTDWAYGPVSSSLYDLTNVDTTTDNSVLEIIVYNTNIDNRHEMLTLEPLHTLLHTKWKKFAKYMFFLSFCFYFFYNITLTLVSYYRPREDEDLPHPLALTHKMSWLQLLGRMFVLIWATCISVKEGIAIFLLRPSDLQSILSDAWFHFVFFVQAVLVILSVFLYLFAYKEYLACLVLAMALGWANMLAYTRGFQSMGMYSVMIQKVILHDVLKFLFVYILFLLGFGVALASLIEKCSKDKKDCSSYGSFSDAVLELFKLTIGLGDLNIQQNSTYPILFLFLLITYVILTFVLLLNMLIALMGETVENVSKESERIWRLQRARTILEFEKMLPEWLRSRFRMGELCKVADEDFRLCLRINEVKWTEWKTHVSFLNEDPGPIRRTADLNKIQDSSRSNSKTTLYAFDELDEFPETSV
binding result: binds
